Experimental data reported in publication PMC10843171.

Tests used:
[1] = biological target: PF-07209960, anti-human PD-1–IL15 mutein fusion protein (human); assay: SPR; Biacore T200; fusion protein captured via anti-human Fc on a CM4 chip, receptor injected as analyte; 37°C; 10 mM HEPES, 150 mM NaCl, 0.05% Tween-20, pH 7.4, 1 mg/mL BSA; steady-state 1:1 Langmuir fit
[2] = biological target: cyno FcRn (cynomolgus monkey) (UniProt Q8SPV9); assay: not stated
human FcRn (human) = human FcRn (human) (UniProt P55899); assay: not stated
Chain of UniProt P55899 (P55899 whole entry, looked up, tested part not stated): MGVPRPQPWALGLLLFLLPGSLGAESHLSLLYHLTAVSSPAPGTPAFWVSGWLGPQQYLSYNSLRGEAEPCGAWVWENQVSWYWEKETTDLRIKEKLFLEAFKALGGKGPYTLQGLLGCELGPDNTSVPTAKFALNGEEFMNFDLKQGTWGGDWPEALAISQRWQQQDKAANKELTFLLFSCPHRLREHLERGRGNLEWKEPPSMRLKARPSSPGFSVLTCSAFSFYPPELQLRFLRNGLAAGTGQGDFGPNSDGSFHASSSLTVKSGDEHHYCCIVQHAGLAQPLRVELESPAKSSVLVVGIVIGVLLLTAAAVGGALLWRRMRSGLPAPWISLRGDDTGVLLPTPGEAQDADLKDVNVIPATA

Chain of UniProt Q8SPV9 (Q8SPV9 whole entry, looked up, tested part not stated): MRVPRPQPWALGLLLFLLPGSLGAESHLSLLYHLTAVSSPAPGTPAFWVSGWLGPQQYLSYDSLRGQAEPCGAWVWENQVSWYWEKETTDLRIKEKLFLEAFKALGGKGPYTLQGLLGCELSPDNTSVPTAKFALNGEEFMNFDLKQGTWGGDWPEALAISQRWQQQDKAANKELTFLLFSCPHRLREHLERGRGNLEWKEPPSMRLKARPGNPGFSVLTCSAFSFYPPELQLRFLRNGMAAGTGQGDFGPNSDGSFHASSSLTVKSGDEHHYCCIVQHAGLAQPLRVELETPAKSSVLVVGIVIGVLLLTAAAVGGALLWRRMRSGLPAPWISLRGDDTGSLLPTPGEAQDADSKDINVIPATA

Substance	Kd [1] [nM]	Kd [2] [nM]	Kd (human FcRn (human)) [nM]
human IL-2Rβ (from UniProt P14784 27-551) (receptor)	4000	–	–
monkey IL-2Rβ (from UniProt Q38J85 27-551) (receptor)	2400	–	–
PF-07209960, anti-human PD-1–IL15 mutein fusion protein	–	426	1040
